Results taken from publication PMC8113354.

System: FgU2AF23-His;GST-FgRbp1 (Fusarium graminearum PH-1;Fusarium graminearum PH-1)
Experiment: pull-down
Conditions: scale: fold FgU2AF23-His bound vs FgU2AF23 alone

Q: How did the binding signal turn out when FgRPS20 exon1-intron1-exon2 RNA was run?
A: Its binding signal is 1.6.
